# Measurements: patent US20110206696A1, “METHODS FOR INHIBITING BONE LOSS AND BONE METASTASIS” (THE WASHINGTON UNIVERSITY, priority 2010, published 2011)
# How the values were obtained:
# [1] = biological target: T1, CD47 (Homo sapiens, UniProt Q08722); settings: cited from earlier work
# [2] = biological target: SIRP (Homo sapiens, UniProt P78324); settings: cited from earlier work
# [3] = biological target: T1, CD47; settings: cited from earlier work; remark: listed apart in the source
# [4] = test system: CD47−/− mice; test: In vivo RANKL injections, serum CTX and calvarial TRAP staining; set-up: species or system mouse; settings: RANKL injected subperiostally into midline calvaria of 8-week old mice, once a day for 5 days
# Experimental: A. 100 μg of RANKL was delivered subperiostally onto the midline calvaria of WT (n=5) and CD47−/− (n=5) mice. Serum CTX was measured before and after RANKL injections. WT vs. CD47−/− pre-RANKL p<0.01, WT vs. CD47−/− post-RANKL p=0.74, WT pre-RANKL vs. post-RANKL p=0.03, CD47−/− pre-RANKL vs. post-RANKL p<0.01. B. Representative images of TRAP stained calvarial sections. Arrows point to recruited OCs.
# We measured serum CTX pre and post-RANKL injections in these mice. Pre-RANKL injection, CD47−/− mice had lower serum CTX as we have shown before (FIG. 4A). […] Furthermore, direct visualization of OC recruitment by TRAP staining on histological sections of calvarial bone in WT and CD47−/− mice confirmed the CTX results (FIG. 4B). We conclude that a high dose of RANKL rescued the cell-autonomous OC defect in CD47−/− mice.
# CTX was measured from WT or CD47−/− mouse fasting serum by using a CTX ELISA system (Nordic Bioscience Diagnostics, Herlev, Denmark).
# 100 μg of RANKL in a volume of 40 μl was injected subperiostially in the midline calvaria in 8 week-old mice once a day for 5 consecutive days. On the sixth day, serum was collected, mice were sacrificed and the calvarial bone was isolated. TRAP staining was performed on fixed, decalcified and paraffin-embedded calvarial bone.
# [5] = test system: CD47−/− macrophages; test: In vitro osteoclast differentiation, actin ring and bone resorption assays at high RANKL dose; type: cell-based, mouse; settings: RANKL increased two-fold to 100 ng/ml; 50 ng/ml M-CSF
# Experimental: A. FACS analysis on WT and CD47-/- total bone marrow. WT and CD47-/- total bone marrow was stained for CD47 and F4/80. B. QPCR graph showing induction of CD47 transcript over the 7-day course of OC differentiation. C. Representative images of day 5 OCs cultured on bone and stained for TRAP (left panel) and cultured on bovine bone and stained for actin rings (right panel) in the presence of 50 ng/ml of M-CSF and 50 ng/ml or 100 ng/ml of RANKL are shown. D. Representative images of day 5 OCs cultured on bone and stained for resorption lacunae in the presence of 50 ng/ml of M-CSF and either 50 ng/ml of RANKL (left panel) and 100 ng/ml of RANKL (right panel) are shown. E. The pit (resorption lacunae) area was measured by histomorphometry. 50 ng/ml RANKL (p=0.04), 100 ng/ml RANKL (p=0.18). To investigate if the OC defect is cell-autonomous in CD474-/- mice, it was first determined if macrophages or OC precursors were decreased in CD47-/- bone marrow. WT and CD47-/- whole bone marrow were stained with CD47-FITC as control and F4/80 as a macrophage marker and carried out flow cytometry. No significant difference in F4/80+cells in CD47-/- bone marrow compared to WT control was observed (FIG. 3A). To test the differentiation of macrophages to OCs, we cultured whole bone marrow in M-CSF alone for 3 days to enrich for macrophages. […]
# T1 sequence (Q08722 19-323, species assumed): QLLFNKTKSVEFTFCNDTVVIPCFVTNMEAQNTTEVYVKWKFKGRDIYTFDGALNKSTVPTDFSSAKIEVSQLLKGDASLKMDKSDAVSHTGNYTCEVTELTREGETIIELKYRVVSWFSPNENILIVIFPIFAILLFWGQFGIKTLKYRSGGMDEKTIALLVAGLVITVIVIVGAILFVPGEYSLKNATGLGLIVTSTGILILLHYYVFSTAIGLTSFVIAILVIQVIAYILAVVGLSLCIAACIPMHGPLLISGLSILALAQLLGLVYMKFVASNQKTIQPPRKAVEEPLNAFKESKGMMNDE
# Chain of SIRP (P78324 31-504, species assumed): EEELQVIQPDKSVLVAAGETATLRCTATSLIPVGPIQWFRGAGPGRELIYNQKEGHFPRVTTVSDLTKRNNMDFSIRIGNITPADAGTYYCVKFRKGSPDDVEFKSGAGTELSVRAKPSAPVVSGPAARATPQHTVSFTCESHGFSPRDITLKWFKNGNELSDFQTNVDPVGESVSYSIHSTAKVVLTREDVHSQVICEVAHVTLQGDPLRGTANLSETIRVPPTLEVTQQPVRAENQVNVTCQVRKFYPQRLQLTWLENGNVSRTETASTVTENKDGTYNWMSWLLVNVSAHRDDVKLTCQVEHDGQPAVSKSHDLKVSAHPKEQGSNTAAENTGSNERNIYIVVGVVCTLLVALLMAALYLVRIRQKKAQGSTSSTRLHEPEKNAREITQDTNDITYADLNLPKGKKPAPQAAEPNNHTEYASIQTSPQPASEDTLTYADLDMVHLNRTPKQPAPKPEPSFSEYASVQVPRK
molecule,measurement,setting,value
CERVIGTGWVRC,CD47 activity / signaling,[1],inhibit CD47 activity in vitro
same,Binding to SIRP,[2],binds to SIRP
"p7N3: CD47-binding peptide from the C-terminal module of TSP1, FIRWMYEGKK",CD47 activity / signaling,[1],blocked (or disrupted) CD47 signaling
IGWKDFTAYR,Binding to CD47,[3],found to bind CD47
"RANKL: receptor activator of nuclear factor-KB ligand, cytokine for differentiation of macrophages into osteoclasts (protein, UniProt O14788 140-317, looked up, GST tag) Tumor necrosis factor ligand …: IRAEKAMVDGSWLDLAKRSKLEAQPFAHLTINATDIPSGSHKVSLSSWYHDRGWAKISNMTFSNGKLIVNQDGFYYLYANICFRHHETSGDLATEYLQLMVYVTKTSIKIPSSHTLMKGGSTKYWSGNSEFHFYSINVGGFFKLRSGEEISIEVSNPSLLDPDQDATYFGAFKVRDID","OC activation as measured by serum CTX, WT vs CD47−/− mice after RANKL",[4],not significantly different
same,OC differentiation of CD47−/− cells,[5],OC differentiation defect was largely rescued
